Assay results from patent US20110091971A1, “Differentiation of Pluripotent Stem Cells” (priority 2008, published 2011).
Positions count from the first letter of the chain named. Several values for one entry are separate records, joined by “and”; a condition that tells them apart may be missing. Equal entries are not always repeated.

System: H1 or H9 human embryonic stem cells
Experiment: Activin A bioassay: differentiation of human embryonic stem cells to definitive endoderm, cell number and SOX17 intensity by high content analysis (96-well, four days);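 for Sox 17 Intensity average: total fluorescence of the cell multiplied by cell area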
Format: cell-based
Settings: for Sox 17 Intensity % of control: control = R&D Sys Activin A 100 ng/ml on same plate
Excerpt: Activin A is an important mediator of differentiation in a broad range of cell types. […] A bioassay that measures this differentiation in human embryonic stem cells was adapted in miniaturized format to 96-well plates for screening purposes. Validation was completed using treatment with commercial sources of activin A and Wnt3a recombinant proteins and measuring protein expression of the transcription factor SOX17, which is considered a representative marker of definitive endoderm.
Live Cell Assay: Briefly, clusters of H1 or H9 human embryonic stem cells were grown on growth factor-reduced MATRIGEL™ (Invitrogen; Cat #356231)-coated tissue culture plastic. Cells were passaged using collagenase (Invitrogen; Cat # Cat #17104-019) treatment and gentle scraping, washed to remove residual enzyme, and plated in a ratio of 1:1 (surface area) on growth factor-reduced MATRIGEL™-coated 96-well plates (black, 96-well; Packard ViewPlates; Cat #6005182). Cells were allowed to attach as clusters and then recover log phase growth over a 1 to 3 day period, feeding daily with MEF conditioned medium supplemented with 8 ng/ml bFGF (R&D Systems; Cat #233-FB).
The assay was initiated by washing the wells of each plate twice in PBS and followed by adding an aliquot (100 μl) of test sample in DMEM:F12 basal medium (Invitrogen; Cat #11330-032) to each well. Test conditions were performed in triplicate, feeding […] by aspirating and replacing the medium from each well with test samples over a total four day assay period. On the first and second day of assay, test samples added to the assay wells were diluted in DMEM:F12 with 0.5% FCS (HyClone; Cat #SH30070.03) and 20 ng/ml Wnt3a (R&D Systems; Cat #1324-WN). On the third and fourth day of assay, test samples added to the assay wells were diluted in DMEM:F12 with 2% FCS, without any Wnt3a. Positive control samples consisted of recombinant human activin A (Peprotech; Cat #120-14) added at a concentration of 100 ng/ml throughout assay plus Wnt3a (20 ng/ml) on days 1 and 2. Negative control samples omitted treatment with both activin A and Wnt3a.
High Content Analysis: At the conclusion of four days of culture, assay plates were washed twice with PBS, fixed with 4% paraformaldehyde at room temperature for 20 minutes, then washed three times with PBS and permeabilized with 0.5% Triton X-100 for 20 minutes at room temperature. Cells were washed again three times with PBS and blocked with 4% chicken serum (Invitrogen; Cat #16110082) in PBS for 30 minutes at room temperature. Primary antibody (goat anti-human SOX17; R&D Systems; cat #AF1924) was diluted 1:100 in 4% chicken serum and added to each well for one hour at room temperature. Alexa Fluor 488 conjugated secondary antibody (chicken anti-goat IgG; Molecular Probes; Cat #) was diluted 1:200 in PBS and added to each sample well after washing three times with PBS. To counterstain nuclei, 4 μg/ml Hoechst 33342 (Invitrogen; Cat #H3570) was added for ten minutes at room temperature. Plates were washed once with PBS and left in 100 μl/well PBS for imaging.
Imaging was performed using an IN Cell Analyzer 1000 (GE Healthcare) utilizing the 51008bs dichroic for cells stained with Hoechst 33342 and Alexa Fluor 488. Exposure times were optimized from positive control wells and from untreated negative control wells stained with secondary antibody alone. Images from 15 fields per well were acquired to compensate for any cell loss during the bioassay and subsequent staining procedures. Measurements for total cell number and total SOX17 intensity were obtained from each well using IN Cell Developer Toolbox 1.7 (GE Healthcare) software. Segmentation for the nuclei was determined based on grayscale levels (baseline range 100-300) and nuclear size. Averages and standard deviations were calculated for each replicate data set. […]

[1] = supernatant concentration 1x, assay dilution 1:20
[2] = supernatant concentration 10x, assay dilution 1:20
[3] = supernatant concentration 10x, assay dilution 1:40
[4] = supernatant concentration 10x, assay dilution 1:20, assay plates #007, #009, #010
[5] = supernatant concentration 50x, assay dilution 1:20, assay plates #008, #009

B1: ACTN44: activin A variant peptide, SEQ ID 45 (protein)
chain: GLECDGKVNLCCKKQNFVSFKDIGWNDWIIAPSGYHANECSGKCPSHIAGTSGSSLSFHSTVINHYRMRGHSPFSDMGACCIPTKLRPMSMLYYDDGQNIIKKDIQNMIVEECGCS
Cell Number average [1]: 3657 | Sox 17 Intensity average [1]: 5.01E+04 | Sox 17 Intensity % of control [1]: 0.5% | Cell Number average [2]: 1508 | Sox 17 Intensity average [2]: 3.24E+05 | Sox 17 Intensity % of control [2]: 3.5% | Cell Number average [3]: 2272 | Sox 17 Intensity average [3]: 1.58E+05 | Sox 17 Intensity % of control [3]: 1.7%

B2: ACTN47: activin A variant peptide, SEQ ID 48 (protein)
chain: B1 chain with L10Y, A79S
Cell Number average [1]: 2624 | Sox 17 Intensity average [1]: 7.48E+05 | Sox 17 Intensity % of control [1]: 8.0% | Cell Number average [2]: 1399 | Sox 17 Intensity average [2]: 4.27E+06 | Sox 17 Intensity % of control [2]: 45.7% | Cell Number average [3]: 1610 | Sox 17 Intensity average [3]: 1.09E+06 | Sox 17 Intensity % of control [3]: 11.7%

B3: ACTN45: activin A variant peptide, SEQ ID 46 (protein)
chain: B1 chain with L10T, S75A, D76N
Cell Number average [1]: 4591 | Sox 17 Intensity average [1]: 1.48E+05 | Sox 17 Intensity % of control [1]: 1.6% | Cell Number average [2]: 2058 | Sox 17 Intensity average [2]: 1.13E+05 | Sox 17 Intensity % of control [2]: 1.2% | Cell Number average [3]: 4482 | Sox 17 Intensity average [3]: 2.30E+04 | Sox 17 Intensity % of control [3]: 0.2%

B4: ACTN52: activin A variant peptide, SEQ ID 53 (protein)
chain: GLECDGKVNICCKKQLFGKTKDIGWNDWIIAPSGYHGGSCTGECPSHIAGTSGSSLSFHSTVINHYRMRGHSPNANLKSCCSPTKLRPMSMLYYDDGQNIIKKDIQGMKVEECGCT
Cell Number average [1]: 3092 | Sox 17 Intensity average [1]: 1.17E+05 | Sox 17 Intensity % of control [1]: 1.3% | Cell Number average [2]: 4869 | Sox 17 Intensity average [2]: 2.64E+04 | Sox 17 Intensity % of control [2]: 0.3% | Cell Number average [3]: 3900 | Sox 17 Intensity average [3]: 9.50E+04 | Sox 17 Intensity % of control [3]: 1.0%

B5: ACTN71: activin A variant peptide, SEQ ID 72 (protein)
chain: B4 chain with L16S, K19Q, T20A, S39G, N74F, G107N
Cell Number average [1]: 1621 | Sox 17 Intensity average [1]: 2.45E+05 | Sox 17 Intensity % of control [1]: 0.8% | Cell Number average [2]: 3909 | Sox 17 Intensity average [2]: 3.61E+05 | Sox 17 Intensity % of control [2]: 1.2% | Cell Number average [3]: 1970 | Sox 17 Intensity average [3]: 1.01E+06 | Sox 17 Intensity % of control [3]: 3.4%

B6: ACTN53: activin A variant peptide, SEQ ID 54 (protein)
chain: B4 chain with L16E, K19Q, T20A, S39G, T41S, N74W
Cell Number average [1]: 1610 | Sox 17 Intensity average [1]: 1.14E+06 | Sox 17 Intensity % of control [1]: 3.8% | Cell Number average [2]: 3229 | Sox 17 Intensity average [2]: 1.51E+06 | Sox 17 Intensity % of control [2]: 5.1% | Cell Number average [3]: 3476 | Sox 17 Intensity average [3]: 9.41E+05 | Sox 17 Intensity % of control [3]: 3.2%

B7: ACTN62: activin A variant peptide, SEQ ID 63 (protein)
chain: B4 chain with L16S, K19Q, T20A, S39G, N74W, G107N, K109V
Cell Number average [1]: 1661 | Sox 17 Intensity average [1]: 1.05E+06 | Sox 17 Intensity % of control [1]: 3.6% | Cell Number average [2]: 5728 | Sox 17 Intensity average [2]: 2.45E+05 | Sox 17 Intensity % of control [2]: 0.8% | Cell Number average [3]: 3782 | Sox 17 Intensity average [3]: 1.33E+06 | Sox 17 Intensity % of control [3]: 4.5%

B8: ACTN55: activin A variant peptide, SEQ ID 56 (protein)
chain: B4 chain with L16S, K19Q, S39G, N74W, K109V
Cell Number average [1]: 2425 | Sox 17 Intensity average [1]: 3.41E+05 | Sox 17 Intensity % of control [1]: 1.2% | Cell Number average [2]: 3611 | Sox 17 Intensity average [2]: 2.67E+05 | Sox 17 Intensity % of control [2]: 0.9% | Cell Number average [3]: 2761 | Sox 17 Intensity average [3]: 5.44E+05 | Sox 17 Intensity % of control [3]: 1.8%

B9: ACTN57: activin A variant peptide, SEQ ID 58 (protein)
chain: B4 chain with L16S, K19Q, T20A, S39G, T41S, N74W, G107N
Cell Number average [1]: 4485 | Sox 17 Intensity average [1]: 9.99E+05 | Sox 17 Intensity % of control [1]: 3.4% | Cell Number average [2]: 6471 | Sox 17 Intensity average [2]: 1.74E+06 | Cell Number average [4]: 9442 | Sox 17 Intensity average [4]: 1.70E+06 | Sox 17 Intensity % of control [2]: 5.9% and 6.8% | Cell Number average [3]: 4594 | Sox 17 Intensity average [3]: 1.30E+06 | Sox 17 Intensity % of control [3]: 4.4% | Cell Number average [5]: 12697 | Sox 17 Intensity average [5]: 7.82E+06 | Sox 17 Intensity % of control (supernatant concentration 50x, assay dilution 1:20): 31.4%

B10: ACTN63: activin A variant peptide, SEQ ID 64 (protein)
chain: B4 chain with L16S, G18S, K19Q, T20A, S39G, N74F, K109V
Cell Number average [1]: 3380 | Sox 17 Intensity average [1]: 1.07E+06 | Sox 17 Intensity % of control [1]: 3.6% | Cell Number average [2]: 1935 | Sox 17 Intensity average [2]: 2.28E+06 | Sox 17 Intensity % of control [2]: 7.7% | Cell Number average [3]: 2718 | Sox 17 Intensity average [3]: 2.01E+06 | Sox 17 Intensity % of control [3]: 6.8%

B11: ACTN59: activin A variant peptide, SEQ ID 60 (protein)
chain: B4 chain with K19Q, S39G, S82A, T116V
Cell Number average [1]: 2613 | Sox 17 Intensity average [1]: 1.09E+06 | Sox 17 Intensity % of control [1]: 3.7% | Cell Number average [2]: 3304 | Sox 17 Intensity average [2]: 2.11E+06 | Sox 17 Intensity % of control [2]: 7.1% | Cell Number average [3]: 1776 | Sox 17 Intensity average [3]: 1.81E+06 | Sox 17 Intensity % of control [3]: 6.1%

B12: ACTN64: activin A variant peptide, SEQ ID 65 (protein)
chain: B4 chain with L16S, K19Q, S39G, T41S, N74W, K109V
Cell Number average [1]: 2415 | Sox 17 Intensity average [1]: 1.30E+06 | Sox 17 Intensity % of control [1]: 4.4% | Cell Number average [2]: 2215 | Sox 17 Intensity average [2]: 1.55E+06 | Sox 17 Intensity % of control [2]: 5.2% | Cell Number average [3]: 2688 | Sox 17 Intensity average [3]: 1.12E+06 | Sox 17 Intensity % of control [3]: 3.8%
